From patent US20210253718A1, “FRIZZLED5 PROTEIN-BINDING AGENTS” (Modmab Therapeutics Corporation, priority 2016, published 2021)

T1: FZD3 CRD (Homo sapiens, UniProt Q9NPG1)
T1 construct: CRD of FZD1, FZD2, FZD3, FZD4, FZD5, FZD6, FZD7, FZD8, FZD9 or FZD10; GPI anchor signal (C); expressed in transfected cells; host or cells: CHO cells, lentiviral pLenti-puro
T1 sequence (Q9NPG1 23-136 limits assumed): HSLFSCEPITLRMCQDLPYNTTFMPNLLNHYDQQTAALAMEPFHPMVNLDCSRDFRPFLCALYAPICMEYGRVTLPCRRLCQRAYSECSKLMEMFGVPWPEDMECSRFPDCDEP

T2: FZD4 CRD (Homo sapiens, UniProt Q9ULV1)
T2 construct: E42-V167; GPI anchor signal (C); expressed in transfected cells; host or cells: CHO cells, lentiviral pLenti-puro
T2 sequence (Q9ULV1 42-167): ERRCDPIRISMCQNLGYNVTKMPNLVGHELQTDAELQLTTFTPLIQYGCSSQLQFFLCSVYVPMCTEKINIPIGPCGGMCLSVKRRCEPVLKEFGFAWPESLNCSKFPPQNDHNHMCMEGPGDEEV

T3: FZD10 CRD (Homo sapiens, UniProt Q9ULW2)
T3 construct: 30-156; GPI anchor signal (C); expressed in transfected cells; host or cells: CHO cells, lentiviral pLenti-puro
T3 sequence (Q9ULW2 30-156): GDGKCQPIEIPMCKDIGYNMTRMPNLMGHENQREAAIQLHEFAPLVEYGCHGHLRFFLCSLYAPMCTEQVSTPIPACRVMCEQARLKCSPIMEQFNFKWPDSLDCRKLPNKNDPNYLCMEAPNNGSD

T4: FZD8 CRD (Homo sapiens, UniProt Q9H461)
T4 construct: K31-D155; GPI anchor signal (C); expressed in transfected cells; host or cells: CHO cells, lentiviral pLenti-puro
T4 sequence (Q9H461 31-155): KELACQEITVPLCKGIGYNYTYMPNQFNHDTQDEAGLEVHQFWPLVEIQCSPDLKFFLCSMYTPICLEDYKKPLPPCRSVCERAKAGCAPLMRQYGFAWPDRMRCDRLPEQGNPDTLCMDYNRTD

T5: FZD6 CRD (Homo sapiens, UniProt O60353)
T5 construct: S20-P146; GPI anchor signal (C); expressed in transfected cells; host or cells: CHO cells, lentiviral pLenti-puro
T5 sequence (O60353 20-146): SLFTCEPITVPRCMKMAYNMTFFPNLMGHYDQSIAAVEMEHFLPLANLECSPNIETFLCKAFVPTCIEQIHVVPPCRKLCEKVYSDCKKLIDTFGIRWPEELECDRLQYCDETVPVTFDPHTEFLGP


Legend:
FZD3 CRD = biological target: T1, FZD3 CRD; test: Immunofluorescence of anti-FZD5 Fab binding to CHO cells overexpressing Frizzled CRD; set-up: key: −: no binding; +: very weak binder; ++: weak binder; +++: good binder; ++++: very good binder
How it was run: (§1)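 Specificity of anti-FZD5 Fabs was tested on CHO cells displaying membrane-anchored Frizzled CRDs (myc-tagged, GPI-linked), one family member per line. Detection was by immunofluorescence.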

FZD4 CRD = biological target: T2, FZD4 CRD; test: as above; set-up: key: −: no binding; +: very weak binder; ++: weak binder; +++: good binder; ++++: very good binder
How it was run: as §1

FZD10 CRD = biological target: T3, FZD10 CRD; test: as above; set-up: key: −: no binding; +: very weak binder; ++: weak binder; +++: good binder; ++++: very good binder
How it was run: as §1

FZD2 CRD = biological target: T6, FZD2 CRD (Homo sapiens, UniProt Q14332); test: as above; set-up: key: −: no binding; +: very weak binder; ++: weak binder; +++: good binder; ++++: very good binder
T6 construct: D35-P161; GPI anchor signal (C); expressed in transfected cells; host or cells: CHO cells, lentiviral pLenti-puro
How it was run: as §1

FZD7 CRD = biological target: T7, FZD7 CRD (Homo sapiens, UniProt O75084); test: as above; set-up: key: −: no binding; +: very weak binder; ++: weak binder; +++: good binder; ++++: very good binder
T7 construct: D45-S169; GPI anchor signal (C); expressed in transfected cells; host or cells: CHO cells, lentiviral pLenti-puro
How it was run: as §1

FZD8 CRD = biological target: T4, FZD8 CRD; test: as above; set-up: key: −: no binding; +: very weak binder; ++: weak binder; +++: good binder; ++++: very good binder
How it was run: as §1

FZD6 CRD = biological target: T5, FZD6 CRD; test: as above; set-up: key: −: no binding; +: very weak binder; ++: weak binder; +++: good binder; ++++: very good binder
How it was run: as §1

ASPC-1 cells = test: Effect of anti-FZD5 Fabs on proliferation of pancreatic cancer cell lines (percent growth inhibition); type: cell-based, human; settings: Fab 2 μg/ml
RWP1 cells = test: as above; type: cell-based, human; settings: Fab 2 μg/ml

Row | Molecule | Immunofluorescence binding, Frizzled CRD overexpressed on CHO cells: FZD3 (FZD3 CRD) | Immunofluorescence binding, Frizzled CRD overexpressed on CHO cells: FZD4 (FZD4 CRD) | Immunofluorescence binding, Frizzled CRD overexpressed on CHO cells: FZD10 (FZD10 CRD) | Immunofluorescence binding, Frizzled CRD overexpressed on CHO cells: FZD2 (FZD2 CRD) | Immunofluorescence binding, Frizzled CRD overexpressed on CHO cells: FZD7 (FZD7 CRD) | Immunofluorescence binding, Frizzled CRD overexpressed on CHO cells: FZD8 (FZD8 CRD) | Immunofluorescence binding, Frizzled CRD overexpressed on CHO cells: FZD6 (FZD6 CRD) | percent growth inhibition, ASPC-1 2 μg/ml (ASPC-1 cells) [%] | percent growth inhibition, RWP1 2 μg/ml (RWP1 cells) [%]
1 | Fab-2922: anti-FZD5 Fab with antibody variable region Fv-2922; CDR SEQ ID NOs: 35, 36, 61, 99, 137, 171 (antibody, V domains shown) VH: EVQLVESGGGLVQPGGSLRLSCAASGFNIYSSYMHWVRQAPGKGLEWVASISPYSGYTSYADSVKGRFTISADTSKNTAYLQMNSLRAEDTAVYYCARTVRGSKKPYFSGWAMDYWGQGTLVTVSS VL: DIQMTQSPSSLSASVGDRVTITCRASQSVSSAVAWYQQKPGKAPKLLIYSASSLYSGVPSRFSGSRSGTDFTLTISSLQPEDFATYYCQQSFVYPYLITFGQGTKVEIK | − | − | − | − | − | + | − | 14.47 | −6.96
2 | Fab-2924: anti-FZD5 Fab with antibody variable region Fv-2924; CDR SEQ ID NOs: 35, 36, 63, 101, 139, 153 (antibody, V domains shown) VH: EVQLVESGGGLVQPGGSLRLSCAASGFNISYSYIHWVRQAPGKGLEWVASIYSYYSSTSYADSVKGRFTISADTSKNTAYLQMNSLRAEDTAVYYCARGALDYWGQGTLVTVSS VL: DIQMTQSPSSLSASVGDRVTITCRASQSVSSAVAWYQQKPGKAPKLLIYSASSLYSGVPSRFSGSRSGTDFTLTISSLQPEDFATYYCQQWYSGHSLITFGQGTKVEIK | − | − | − | − | − | + | − | 8.55 | 42.76
3 | Fab-2927: anti-FZD5 Fab with antibody variable region Fv-2927; CDR SEQ ID NOs: 35, 36, 66, 104, 142, 174 (antibody, V domains shown) VH: EVQLVESGGGLVQPGGSLRLSCAASGFNIYYSSMHWVRQAPGKGLEWVASIYPSYGYTSYADSVKGRFTISADTSKNTAYLQMNSLRAEDTAVYYCARYGYYGFDYWGQGTLVTVSS VL: DIQMTQSPSSLSASVGDRVTITCRASQSVSSAVAWYQQKPGKAPKLLIYSASSLYSGVPSRFSGSRSGTDFTLTISSLQPEDFATYYCQQWGSHGYLITFGQGTKVEIK | − | − | − | +++ | ++++ | + | − | 12.47 | 46.02
4 | Fab-2923: anti-FZD5 Fab with antibody variable region Fv-2923; CDR SEQ ID NOs: 35, 36, 62, 100, 138, 162 (antibody, V domains shown) VH: EVQLVESGGGLVQPGGSLRLSCAASGFNLYYYYMHWVRQAPGKGLEWVASIYSSSGSTSYADSVKGRFTISADTSKNTAYLQMNSLRAEDTAVYYCARGAMDYWGQGTLVTVSS VL: DIQMTQSPSSLSASVGDRVTITCRASQSVSSAVAWYQQKPGKAPKLLIYSASSLYSGVPSRFSGSRSGTDFTLTISSLQPEDFATYYCQQWYGYSALITFGQGTKVEIK | − | − | − | − | − | + | − | 35.27 | 35.90

Now from value to molecule, other results behind:

Row | Immunofluorescence binding, Frizzled CRD overexpressed on CHO cells: FZD3 (FZD3 CRD) | Immunofluorescence binding, Frizzled CRD overexpressed on CHO cells: FZD4 (FZD4 CRD) | Immunofluorescence binding, Frizzled CRD overexpressed on CHO cells: FZD10 (FZD10 CRD) | Immunofluorescence binding, Frizzled CRD overexpressed on CHO cells: FZD2 (FZD2 CRD) | Immunofluorescence binding, Frizzled CRD overexpressed on CHO cells: FZD7 (FZD7 CRD) | Immunofluorescence binding, Frizzled CRD overexpressed on CHO cells: FZD8 (FZD8 CRD) | Immunofluorescence binding, Frizzled CRD overexpressed on CHO cells: FZD6 (FZD6 CRD) | Molecule | percent growth inhibition, ASPC-1 2 μg/ml (ASPC-1 cells) [%] | percent growth inhibition, RWP1 2 μg/ml (RWP1 cells) [%]
5 | − | − | − | − | − | − | − | Fab-2928: anti-FZD5 Fab with antibody variable region Fv-2928; CDR SEQ ID NOs: 35, 36, 67, 105, 143, 175 (antibody, V domains shown) VH: EVQLVESGGGLVQPGGSLRLSCAASGFNISYSSIHWVRQAPGKGLEWVASIYPSYSSTYYADSVKGRFTISADTSKNTAYLQMNSLRAEDTAVYYCARYYAMDYWGQGTLVTVSS VL: DIQMTQSPSSLSASVGDRVTITCRASQSVSSAVAWYQQKPGKAPKLLIYSASSLYSGVPSRFSGSRSGTDFTLTISSLQPEDFATYYCQQAFYYPITFGQGTKVEIK | 2.33 | −8.19
6 | − | − | − | − | + | − | − | Fab-2929: anti-FZD5 Fab with antibody variable region Fv-2929; CDR SEQ ID NOs: 35, 36, 68, 106, 144, 162 (antibody, V domains shown) VH: EVQLVESGGGLVQPGGSLRLSCAASGFNISYYYIHWVRQAPGKGLEWVASIYPSSSSTSYADSVKGRFTISADTSKNTAYLQMNSLRAEDTAVYYCARGAMDYWGQGTLVTVSS VL: DIQMTQSPSSLSASVGDRVTITCRASQSVSSAVAWYQQKPGKAPKLLIYSASSLYSGVPSRFSGSRSGTDFTLTISSLQPEDFATYYCQQWYSSYGLITFGQGTKVEIK | 41.68 | 0.41
